Data reported in FireProtDB (doi:10.1021/bi002792f).

B1: Lysozyme C, P61626 (parent)
chain: MKALIVLGLVLLSVTVQGKVFERCELARTLKRLGMDGYRGISLANWMCLAKWESGYNTRATNYNAGDRSTDYGIFQINSRYWCNDGKTPGAVNACHLSCSALLQDNIADAVACAKRVVRDPQGIRAWVAWRNRCQNRDVRQYVQGCGV

Variants of: B1
Conditions: Homo sapiens, pH 2.7, Thermal, DSC, Gly-HCl 0.05 M, reversible: yes, structure 1LZ1, whole UniProt chain shown

Row | Variant | heat capacity change of unfolding (64.9 °C) [kcal/mol/K] | unfolding enthalpy (calorimetric) (64.9 °C) [kcal/mol] | ddG of mutation (higher = less stable) (64.9 °C) [kcal/mol] | Tm [°C] | change of melting temperature, mutant - wild type (higher = more stable) [°C] | heat capacity change of unfolding [kcal/mol/K]
1 | MKALIVLGLVLLSVTVQGKVFERCELARTLKRLGMDGYRGISLANWMCLAKWESGYNTRATNYNAGDRSTDYGIFQINSRYWCNDGKTPGAVNACHLSCSALLQDNIADAVACAKRVTRDPQGIRAWVAWRNRCQNRDVRQYVQGCGV [V118T] | 1.53 | 107 |  |  |  | 
2 | MKALIVLGLVLLSVTVQGKVFERCELARTLKRLGMDGYRGISLANWMCLAKWESGYNTRATNYNAGDRSTDYGIFQINSRYWCNDGKTPGAVNACHLSCSALLQDNIADAVACSKRVVRDPQGIRAWVAWRNRCQNRDVRQYVQGCGV [A114S] | 1.29 | 103 | 1 | 61.6 | -3.3 | 1.29
3 | MKALIVLGLVLLSVTVQGKVFERCELSRTLKRLGMDGYRGISLANWMCLAKWESGYNTRATNYNAGDRSTDYGIFQINSRYWCNDGKTPGAVNACHLSCSALLQDNIADAVACAKRVVRDPQGIRAWVAWRNRCQNRDVRQYVQGCGV [A27S] | 1.27 | 106 |  | 64.8 | -0.1 | 1.27
4 | MKALIVLGLVLLSVTVQGKVFERCELARTLKRLGMDGYRGISLANWMCLAKWESGYNTRATNYNAGDRSTDYGIFQINSRYWCNDGKTPGAVNACHLSCSALLQDNIADSVACAKRVVRDPQGIRAWVAWRNRCQNRDVRQYVQGCGV [A110S] | 2.01 | 104 |  | 67.5 | 2.6 | 2.01
5 | MKALIVLGLVLLSVTVQGKVFERCELARTLKRLGMDGYRGISLANWMCLAKWESGYNTRATNYNAGDRSTDYGIFQINSRYWCNDGKTPGAVNACHLSCSALLQDNIADAVACAKRTVRDPQGIRAWVAWRNRCQNRDVRQYVQGCGV [V117T] | 1.41 | 104 |  | 63.3 | -1.6 | 1.41
6 | MKALIVLGLVLLSVTVQGKVFERCETARTLKRLGMDGYRGISLANWMCLAKWESGYNTRATNYNAGDRSTDYGIFQINSRYWCNDGKTPGAVNACHLSCSALLQDNIADAVACAKRVVRDPQGIRAWVAWRNRCQNRDVRQYVQGCGV [L26T] | 1.39 | 107 | 3.73 | 52.5 | -12.4 | 1.39
7 | MKALIVLGLVLLSVTVQGKVFERCELARTLKRLGMDGYRGISLANWMCLAKWESGYNTRATNYNAGDRSTDYGIFQINSRYWCNDGKTPGAVNACHLSCSALLQDNIADATACAKRVVRDPQGIRAWVAWRNRCQNRDVRQYVQGCGV [V111T] | 1.12 | 101 | 0.67 | 62.6 | -2.3 | 1.12
8 | MKALIVLGLVLLSVTVQGKVFERCELARTLKRLGMDGYRGISLANWMCLSKWESGYNTRATNYNAGDRSTDYGIFQINSRYWCNDGKTPGAVNACHLSCSALLQDNIADAVACAKRVVRDPQGIRAWVAWRNRCQNRDVRQYVQGCGV [A50S] | 1.65 | 111 | 0.33 | 63.9 | -1 | 1.65
